This note sets out measurements from PMC11825280.

The target in the assay is rVSV-EBOV/Mayinga GP (EBOV/H.sap-tc/COD/76/Yambuku-Mayinga), thermolysin-cleaved (Ebola virus (EBOV)) (UniProt Q05320). Nature of the assay: ELISA. For orientation: An ELISA detects its analyte on a solid surface through an enzyme-linked reagent.
Chain of rVSV-EBOV/Mayinga GP (EBOV/H.sap-tc/COD/76/Yambuku-Mayinga), thermolysin-cleaved (Ebola virus (EBOV)) (Q05320 33-676): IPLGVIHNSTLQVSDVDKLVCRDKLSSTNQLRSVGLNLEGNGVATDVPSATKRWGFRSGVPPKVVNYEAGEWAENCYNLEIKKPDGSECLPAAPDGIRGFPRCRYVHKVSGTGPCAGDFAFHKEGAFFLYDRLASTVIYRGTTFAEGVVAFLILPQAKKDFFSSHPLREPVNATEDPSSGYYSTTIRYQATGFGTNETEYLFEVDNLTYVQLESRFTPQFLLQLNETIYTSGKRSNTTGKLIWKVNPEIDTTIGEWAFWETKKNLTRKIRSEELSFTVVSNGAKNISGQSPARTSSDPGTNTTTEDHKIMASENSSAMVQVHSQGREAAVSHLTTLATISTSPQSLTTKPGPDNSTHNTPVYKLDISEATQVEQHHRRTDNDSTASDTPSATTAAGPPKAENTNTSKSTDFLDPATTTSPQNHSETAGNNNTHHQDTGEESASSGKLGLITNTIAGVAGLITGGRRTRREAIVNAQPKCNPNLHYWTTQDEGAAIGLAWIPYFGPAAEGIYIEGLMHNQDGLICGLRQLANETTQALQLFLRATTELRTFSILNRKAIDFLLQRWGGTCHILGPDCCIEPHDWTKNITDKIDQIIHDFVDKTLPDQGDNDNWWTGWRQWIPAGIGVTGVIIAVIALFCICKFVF

As for “soluble human NPC1 domain C (NPC1-C) (from UniProt O15118 23-1278) (domain or fragment)”, the binding AUC turned out to be 277.
